These results are taken from US20130156770A1 (published 2013).

For orientation: Kd means a measure of binding affinity in units of concentration. Read a high Kd as lower affinity.

Some targets named below: BCMA-107 x CD3; BC 244-C6 x CD3; BC 247-C3 x CD3.
Common to all, as to experiment: SPR (Biacore)

B1: Human BCMA (receptor)
chain: MLQMAGQCSQNEYFDSLLHACIPCQLRCSSNTPPLTCQRYCNASVTNSVKGTNAILWTCLGLSLIISLAVFVLMFLLRKINSEPLKDEFKNTGSGLLGMANIDLEKSRTGDEIILPRGLEYTVEECTCEDCIKSKPKVDSDHCFPLPAMEEGATILVTTKTNDYCKSLPAALSATEIEKSISAR
On to B1, for which the Kd with BCMA-107 x CD3 came out at 34.2 nM; with BC 244-C6 x CD3, 0.3 nM; with BC 247-C3 x CD3, 0.4 nM.
